Target: alpha-synuclein (Homo sapiens, UniProt P37840)
Test: SPR

Binder | Kd [µM]
EQALMPWIWYWKDPNGS (preformed fibrils) [EQALMPWIWYWKDPNGS peptide] | 28.4
ELAQMGPEGMGLEDPNGS (preformed fibrils) [ELAQMGPEGMGLEDPNGS peptide] | 194
PYYYWKDPNGS (preformed fibrils) [PYYYWKDPNGS peptide] | 39.2
PYYYWKELAQM (preformed fibrils) [PYYYWKELAQM peptide] | 55.2
ELAQMPYYYWKDPNGS (preformed fibrils) [ELAQMPYYYWKDPNGS peptide] | 133

Source: article PMC11591946 (2024)
